These results are taken from article PMC9976917.

Common to all, as to test: fluorescence polarization
One data set deals with T1, ZNF410 NT (Homo sapiens, UniProt Q86VK4 1-216).
T1 sequence: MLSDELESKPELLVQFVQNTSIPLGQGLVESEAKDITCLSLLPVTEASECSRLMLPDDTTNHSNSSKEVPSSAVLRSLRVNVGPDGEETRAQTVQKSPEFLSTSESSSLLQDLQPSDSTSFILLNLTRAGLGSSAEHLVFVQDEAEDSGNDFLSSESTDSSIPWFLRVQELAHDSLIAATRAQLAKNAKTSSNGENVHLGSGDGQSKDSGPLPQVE

The target in another data set is T2, ZNF410 FL DEAED-to-AAAAA (Homo sapiens, UniProt Q86VK4 1-478, D143A;E144A;E146A;D147A).
T2 sequence: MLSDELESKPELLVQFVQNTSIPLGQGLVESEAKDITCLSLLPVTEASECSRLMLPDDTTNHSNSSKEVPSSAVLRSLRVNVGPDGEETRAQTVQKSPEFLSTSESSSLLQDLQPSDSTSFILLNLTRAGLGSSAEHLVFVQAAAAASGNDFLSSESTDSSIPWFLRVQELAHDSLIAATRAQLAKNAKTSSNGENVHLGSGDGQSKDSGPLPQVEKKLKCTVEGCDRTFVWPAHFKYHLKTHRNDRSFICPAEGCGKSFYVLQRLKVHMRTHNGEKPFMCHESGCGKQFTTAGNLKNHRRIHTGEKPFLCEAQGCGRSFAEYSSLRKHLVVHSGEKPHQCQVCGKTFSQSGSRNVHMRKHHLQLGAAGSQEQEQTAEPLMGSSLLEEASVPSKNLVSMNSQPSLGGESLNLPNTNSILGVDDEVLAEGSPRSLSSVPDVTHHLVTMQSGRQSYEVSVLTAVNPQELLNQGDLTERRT

The target in data set [1] is T3, ZNF410 FL seven S/T-to-D/E (Homo sapiens, UniProt Q86VK4 1-478, S148D;S154D;S155D;S157D;T158E;S160D;S161D).
T3 sequence: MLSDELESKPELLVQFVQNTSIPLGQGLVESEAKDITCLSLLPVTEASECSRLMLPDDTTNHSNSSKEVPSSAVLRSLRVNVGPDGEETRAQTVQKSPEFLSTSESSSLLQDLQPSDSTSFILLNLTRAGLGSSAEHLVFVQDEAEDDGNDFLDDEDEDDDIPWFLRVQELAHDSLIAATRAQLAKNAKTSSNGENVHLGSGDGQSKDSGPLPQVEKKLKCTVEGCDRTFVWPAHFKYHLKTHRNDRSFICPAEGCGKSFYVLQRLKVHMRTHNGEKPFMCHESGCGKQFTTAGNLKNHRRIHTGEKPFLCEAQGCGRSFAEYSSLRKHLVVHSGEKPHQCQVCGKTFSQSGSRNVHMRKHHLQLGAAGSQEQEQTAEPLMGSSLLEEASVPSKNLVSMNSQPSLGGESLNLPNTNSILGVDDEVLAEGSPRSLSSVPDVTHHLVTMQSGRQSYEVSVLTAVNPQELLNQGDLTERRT

B1: FAM 17-bp ZNF410 motif duplex (dsDNA)
DNA 1: CACATCCCATAATAATG
DNA 2: CATTATTATGGGATGTG
Regarding B1, the binding result with ZNF410 NT is “no binding”. The binding signal is > 4 fold higher affinity than wild-type FL with ZNF410 FL DEAED-to-AAAAA and > 6 fold lower affinity than wild-type FL in data set [1].
